Residue numbers refer to the chain shown, from its start.
B1: BC-A8 (Fab) (Fab, V domains shown)
VH: QTVKESGGRLVTPGAPLTLTCTVSRFSLSSYAMTWVRQAPGKGLEWIGIINNDGSSSTWYASWVKGRFTISKTSTTMDLKMTSLTTEDTATYFCARGGTSGYDIWGPGTLVTVSL
VL: AQGLTQTPSPVSAAVGGTVTINCQSSPSVYKNYLSWYQQKPGQPPKLLIYGASTLASGVPSRFKGSGSGTQFTLTISDVQCDDAATYYCAGGYRGSSDIFAFGGGTEVVVK
B2: SC-D1 (Fab) (Fab, V domains shown)
VH: B1 VH with T2S, V3L, K4E, G7R, A15G, P16S, R25G, S55V
VL: B1 VL with A1D, Q2P, G3M, L4M, D78G
B3: BC-E2 (Fab) (Fab, V domains shown)
VH: QEQLKESGGRLVTPGAPLTLTCTVSRFSLSSYAMTWVRQAPGKGLEWIGIINNDGISSTWYASWVKGRFTISKTSTTMDLKMTSLTTEDTATYFCARGGTSGYDIWGPGTLVTVSL
VL: B1 VL with Q2V, G3V, G51K
B4: BC-A9 (Fab) (Fab, V domains shown)
VH: B1 VH with T2S, K4E, A15G, P16S, S55I, L110V
VL: B1 VL with S9A, P10S, P41S, V59A
B5: BC-E11 (Fab) (Fab, V domains shown)
VH: B1 VH with T2S, T12A, A15T, T22A, R25G, S55R, L84P
VL: B1 VL with L4M, Q71R
B6: BC-B4 (Fab) (Fab, V domains shown)
VH: B1 VH with T2S, K4E, A15G, P16S, S55I, L110V
VL: B1 VL with Q2L, G3V, P27Q, S97G
B7: BC-A3 (Fab) (Fab, V domains shown)
VH: B1 VH with S55V
VL: B1 VL with G3V, S9A, P10S, G16R, P41S
B8: SC-F6 (Fab) (Fab, V domains shown)
VH: B1 VH with T2S, S55I
VL: B1 VL with L4M, S9A, P10S, P41S
B9: BC-E1 (Fab) (Fab, V domains shown)
VH: B1 VH with T2S, T12A, A15T, T22A, R25G, S55R, L84P
VL: B1 VL with L4M, Q71R
B10: SC-C7 (Fab) (Fab, V domains shown)
VH: B1 VH with S30G, G54I, S56G, L115S
VL: B1 VL with A1D, Q2V, G3V, L4M
B11: BC-G6 (Fab) (Fab, V domains shown)
VH: B1 VH with T2S, K4E, A15G, P16S, V23A, R25G, S30G, S55I
VL: B1 VL with Q2L, G3V, L4M
B12: BC-E4 (Fab) (Fab, V domains shown)
VH: B1 VH with T2S, T12A, A15T, T22A, R25G, S55R, L84P
VL: B1 VL with L4M, Q71R
B13: SC-H10 (Fab) (Fab, V domains shown)
VH: B1 VH with T2S, V3L, K4E, S55I
VL: B1 VL with K64S
B14: BC-E3 (Fab) (Fab, V domains shown)
VH: B1 VH with T2S, T12A, A15T, T22A, R25G, S55R, L84P
VL: B1 VL with L4M, Q71R
B15: SC-B2 (Fab) (Fab, V domains shown)
VH: B3 VH with K5M, G8R, A16G, P17S, S31N
VL: B1 VL with L4P, S97G
B16: BC-F7 (Fab) (Fab, V domains shown)
VH: B1 VH with T2S, K4E, A15G, P16S, S55I, L110V
VL: B1 VL with Q2L, G3V, P27Q, S97G
B17: SC-G8 (Fab) (Fab, V domains shown)
VH: B1 VH with T2S, K4E, T12M, A15G, P16S, V23A, R25G, S56G
VL: B1 VL with Q2A, G3V, G51K, S96Y
B18: BC-C8 (Fab) (Fab, V domains shown)
VH: B1 VH with T2S, V3L, K4E, A15G, P16S, S55I, L110V
VL: B1 VL with Q2L, G3V
B19: SC-D10 (Fab) (Fab, V domains shown)
VH: B1 VH with T2S, A15G, P16S, S55V
VL: B1 VL with Q2L, G3V, L4M, I21T, G51K, K64S
B20: BC-H4 (Fab) (Fab, V domains shown)
VH: B1 VH with T2Q, V3L, S55V, L115S
VL: B1 VL with Q2L, G3V, S97G
B21: BC-F2 (Fab) (Fab, V domains shown)
VH: B1 VH with T2S, T12A, A15T, T22A, R25G, S55R, L84P
VL: B1 VL with L4M, Q71R
B22: Antibody D (antibody, mouse IgG2a, kappa, V domains shown)
VH: EVQLQQSGAELVRPGASVTLSCKASGYTFTDYEMHWVQQTPVHGLEWIGGIDPETGGTGYNQKFKGKAILTADKSSSTAYMELRSLTSEDSAVYFCTRHGSYAMDYWGQGTSVTVSS
VL: DIVMTQSPKFMSTSVGDRVSITCKASQDVSTAVAWYQQKPGQSPKLLIYWASTRHTGVPDRFTGSGSGTDYTLTISSVQAEDLALYYCQQHYSTPPTFGGGTRLEIKR
notes: also called anti AQP3 antibody D
B23: Antibody A (antibody, mouse IgG2a, kappa, V domains shown)
VH: QVQLQQPGAELVRPGASVTLSCKASGYTFTDYEMHWVKQTPVHGLEWIGGVDPETGGTGYNQKFRGKAILTADKSSSTAYMELRSLTSEDSAVYYCARHGGSFYAMDYWGQGTSVTVSS
VL: B22 VL with R103K, I106L
notes: also called anti AQP3 antibody A
B24: Antibody K (antibody, mouse IgG2a, kappa, V domains shown)
VH: QVQLKQSGAELVRPGTSVKVSCKASGYAFTNYLIEWVKQRPGQGLEWIGVINPGSGGTNYNEKFKGKATLTADKSSSTAYMQLSSLTSEDSAVYFCARWGFYYAMDYWGQGTSVTVSS
VL: DIVMTQSPSSLSASLGERVSLTCRASQEISGYLSWLQQKPDGTIKRLIYAASTLDSGVPKRFSGSRSGSDYSLTISSLESEDFADYYCLQYASYPLTFGAGTKLEIKR
notes: also called anti AQP3 antibody K
B25: Antibody F (antibody, mouse IgG2a, kappa, V domains shown)
VH: QVQLKESGPELVKPGASVKISCKASGYTFTDYYINWVKQRPGQGLEWIGWIFPGSGSTYYNEKFKGKATLTVDKSSSTAYMLLSSLTSEDSAVYFCADYGSSYRYFDVWGAGTTVTVSS
VL: DIVMTQSPAILSASPGEKVTMTCRASSSVSYMHWYQQKPGSSPKPWIYATSYLASGVPARFSGSGSGTSYSLTIGRVEAEDAATYYCQQWSSNPLTFGAGTKLELKR
notes: also called anti AQP3 antibody F; Antiboy F
B26: Antibody B (antibody, mouse IgG2a, kappa, V domains shown)
VH: EVQLVESGGDLVKPGGSLKLSCAASGFTFSSYGMSWVRQTPDKRLEWVATISRGSIYTYYPDSVKGRFTISRDNAKNTLYLQMSSLKSEDTAMYYCARLSLYDYDGARYTMDYWGQGTSVTVSS
VL: DIVMTQSPKFMSTSVGDRVSITCKASQDVGTAVAWYQQKPGQSPKLLIYWASTRHTGVPDRFTGSGSGTDFTLTISNVQSEDLADYFCQQYSSYHTFGAGTKLELKR
notes: also called anti AQP3 antibody B

Experiments:
[1] = target: T1, oligopeptide ATYPSGHLDM (SEQ ID NO: 1) (human and mouse); assay: ELISA on peptide, Fab
T1 construct: Synthetic peptide; positions 148 to 157 of the human AQP3 polypeptide, identical in mouse; also called peptide used for immunization; oligopeptide 5
T1 peptide: ATYPSGHLDM

[2] = target: T2, human aquaporin 3 (AQP3) on cells (human, UniProt Q92482 1-292); assay: fluorescence binding assay on HaCaT cells, 10 µg/mL (FIG. 5C)
T2 construct: whole, on cells; Water channel membrane protein; also called human AQP3; AQP3 on HaCaT cells
T2 sequence (looked up): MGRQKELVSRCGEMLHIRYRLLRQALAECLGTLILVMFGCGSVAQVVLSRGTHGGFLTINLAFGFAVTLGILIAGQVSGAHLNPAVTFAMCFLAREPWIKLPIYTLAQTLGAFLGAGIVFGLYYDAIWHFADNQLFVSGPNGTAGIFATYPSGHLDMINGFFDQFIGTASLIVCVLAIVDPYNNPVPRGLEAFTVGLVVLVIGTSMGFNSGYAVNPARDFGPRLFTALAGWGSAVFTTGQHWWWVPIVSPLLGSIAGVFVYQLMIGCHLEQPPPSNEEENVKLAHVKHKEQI

[3] = target: T3, mouse aquaporin 3 (AQP3) on cells (mouse, UniProt Q8R2N1 1-292); assay: fluorescence binding assay on PAM212 cells, 10 µg/mL (FIG. 5B)
T3 construct: whole, on cells; Water channel membrane protein; also called mouse AQP3; AQP3 on PAM212 cells
T3 sequence (looked up): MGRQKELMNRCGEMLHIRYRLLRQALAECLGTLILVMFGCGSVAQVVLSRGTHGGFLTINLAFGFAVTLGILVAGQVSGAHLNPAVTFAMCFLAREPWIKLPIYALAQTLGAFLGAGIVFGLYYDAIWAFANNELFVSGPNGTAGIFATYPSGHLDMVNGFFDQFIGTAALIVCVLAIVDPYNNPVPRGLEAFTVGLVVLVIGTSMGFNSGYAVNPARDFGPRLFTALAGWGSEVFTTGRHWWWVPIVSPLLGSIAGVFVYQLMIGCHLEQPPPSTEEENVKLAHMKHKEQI
Description: PAM212 and macrophage cells were reacted with each anti AQP3 antibody (0.1, 1, or 10 μg/mL) at 4° C. for 1 hour. After washing the cells, a fluorescent-labeled secondary antibody was added and the reaction was allowed to occur additionally for 1 hour (4° C.). By measuring the fluorescence intensity, the binding property of each anti AQP3 antibody to cells was obtained.
The assay was also performed using PAM212 cells and antibodies A, B, C, D, E, F, G, H, and J at a concentration of 10 μg/mL. Binding of antibodies C, D, E, G, and J to PAM212 cells was statistically significant.

[4] = target: T4, mouse AQP3 in lysate of HEK293T cells overexpressing mouse AQP3 and a myc-biotinylated tag (mouse, UniProt Q8R2N1 1-292); assay: ELISA on lysate of HEK293T cells overexpressing mouse AQP3 (FIG. 3)
T4 construct: Cell lysate used in ELISA; also called AQP3 containing cell lysate; not shown: myc-biotinylated tag
T4 sequence (looked up): T3 sequence (looked up)
Source text: Cell lysate from HEK293T cells overexpressing mouse AQP3 and a myc-biotinylated tag was used in an ELISA assay to measure the binding of antibodies A, B, C, D, E, F, G, H, J, and K to AQP3. Cell lysate from HEK293T cells overexpressing the myc-biotinylated tag but not AQP3 was used as control. […] C. Antibody binding to AQP3 expressing cells

[5] = target: T1, oligopeptide ATYPSGHLDM (SEQ ID NO: 1); assay: ELISA on the immunogen peptide (FIG. 2)

Binder | binding result [1] | also measured
B1 | binds | 
B2 | binds | 
B3 | binds | 
B4 | binds | 
B5 | binds | 
B6 | binds | 
B7 | binds | 
B8 | binds | 
B9 | binds | 
B10 | binds | 
B11 | binds | 
B12 | binds | 
B13 | binds | 
B14 | binds | 
B15 | binds | 
B16 | binds | 
B17 | binds | 
B18 | binds | 
B19 | binds | 
B20 | binds | 
B21 | binds | 
B22 |  | binding result [2]: binds; binding result [3]: binds; binding result [4]: binds
B23 |  | binding result [4]: binds
B24 |  | binding result [5]: binds; binding result [4]: binds
B25 |  | binding result [4]: binds
B26 |  | binding result [5]: binds; binding result [4]: binds

From US20220298237A1 (KEIO UNIVERSITY, published 2022)
